Experimental findings from publication PMC2727048 are described below.

Holding throughout (conditions): remark: other sources report otherwise
Assay [1] has as its target T1, HBV core protein of virion-derived mature capsids (Mat-C) (Hepatitis B virus), P03146.
T1 chain: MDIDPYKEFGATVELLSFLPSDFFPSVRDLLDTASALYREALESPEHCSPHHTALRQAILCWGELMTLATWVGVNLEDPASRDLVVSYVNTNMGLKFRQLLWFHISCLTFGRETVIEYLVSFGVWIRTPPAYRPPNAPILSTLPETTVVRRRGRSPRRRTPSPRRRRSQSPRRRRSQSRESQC
Briefly: Nycodenz gradient ultracentrifugation; 50 ng P-Mat-C after transport reaction with 4×10^6 digitonin-permeabilized HuH-7 cells and rabbit reticulocyte lysate, lysate of the cells on the gradient; controls with WGA, cells treated with RNase A.

In assay [2] the target is T1, HBV core protein of virion-derived …. Briefly: Nycodenz gradient ultracentrifugation.
The target of assay [3] is T2, HBV core protein of E. coli-derived "recombinant" capsids (rC) (Hepatitis B virus), P03146.
T2 chain: T1 chain
Description: Nycodenz gradient ultracentrifugation.

B1: HBV core protein of virion-derived mature capsids (Mat-C), P03146 1-183 (natural protein)
chain: T1 chain
Molecule B1 displayed a percent of 32P core proteins in the particle fractions in assay [1] of 99%. Further, the percent of the radioactivity in the four major (capsid) fractions in assay [2] was 98%.

B2: HBV core protein of E. coli-derived "recombinant" capsids (rC), P03146 1-183 (natural protein)
chain: T1 chain
As to B2, the percent of the radioactivity in the three major (capsid) fractions in assay [3] amounted to 91%.
